Reference: PMC6643279 (Biochemistry, 2018)

Assays:
Assay in all cases: purified protein
CC(=O)Oc1ccc2ccccc2c1 = details: pH 8.0; 30.0 °C
[1] = tested on: CC(=O)OCC(COP(=O)(O)O)OC(C)=O; details: pH 8.0; 30.0 °C
CC(=O)Oc1c[nH]c2ccccc12 = details: pH 8.3; 30.0 °C

With “phosphotriesterase homology protein (PHP) (Escherichia coli K-12)” the Km (CC(=O)Oc1ccc2ccccc2c1) was 1800 ± 200 µM, the kcat/Km (CC(=O)Oc1ccc2ccccc2c1) was 1400 ± 200 M⁻¹ s⁻¹ and the Km [1] was 6000 ± 500 µM. The kcat/Km [1] was 4600 ± 650 M⁻¹ s⁻¹, the Km (CC(=O)Oc1c[nH]c2ccccc12) was 1800 ± 200 µM and the kcat/Km (CC(=O)Oc1c[nH]c2ccccc12) was 180 ± 20 M⁻¹ s⁻¹.
